Patent publication US20250352611A1, “METHODS FOR TREATING CATARACTS USING POLYPEPTIDES” (REJUKON BIOPHARM INC., priority 2022, published 2025)

Assays:
[1] = target: T1, G3BP1 (Mus musculus, UniProt P97855); assay: G3BP1 turbidity assay (OD395 nm); format: biochemical; settings: G3BP1 30 μM, ratio range 0.75 to 25, room temperature, 10 minutes
T1 construct: Genes of full-length mouse G3BP1, G3BP1-eGFP; thrombin protease cleavage site (C); His6 (C); made in house; host or cells: Escherichia coli rosetta (DE3)
Experimental: The turbidity of G3BP1 (30 μM) in the presence of various concentrations of Champ-E, Champ-D, Champ-K, or Champ-Q was measured at a wavelength of 395 nm. Briefly, G3BP1 protein ([…]) and polypeptides Champ-E (RJK001), Champ-D (RJK002), Champ-K (RJK012) and Champ-Q (RJK005) were mixed well in a ratio range of 0.75 to 25 at room temperature for 10 minutes prior to turbidity assays. Absorbance at 395 nm (OD395 nm) was monitored at room temperature using Nanodrop ONE (Thermo Fisher Scientific, Inc.). […] The turbidity level reflects the degree of phase separation.
Briefly, the G3BP1 protein and the above-mentioned peptides were mixed at room temperature for 10 minutes prior to turbidity assays. 30 μM G3BP1 and peptide were mixed well in a ratio range of 0.75 to 25 before test. Absorbance at 395 nm (OD395 nm) was monitored at room temperature using Nanodrop ONE (Thermo Fisher Scientific, Inc.).
(§1) We followed the Turbidity Assays experiment as previously reported. Briefly, G3BP1 turbidity analysis were at room temperature and γD-crystallin protein was at 4° C. Proteins and Champ-E(RJK001), Champ-K, Champ-D or mutants are mixed at room temperature for 10 minutes prior to turbidity assays. 20 μM G3BP1 and 50 mg/ml(2.5 mM) γD-crystallin and peptide were mixed well in a ratio range of 0.75 to 25 before test. Absorbance at 395 nm (OD395 nm) was monitored at room temperature using Nanodrop ONE (Thermo Fisher Scientific, Inc.).

[2] = target: T2, G3BP1-GFP protein (Mus musculus, UniProt P97855); assay: G3BP1-GFP phase separated droplet dissolution, confocal laser microscope; format: biochemical; settings: 60 uM polypeptide, 20 uM G3BP1-GFP, pH7.5, 40s after addition
T2 construct: Genes of full-length mouse G3BP1, G3BP1-eGFP; thrombin protease cleavage site (C); His6 (C); made in house; host or cells: Escherichia coli rosetta (DE3)
Experimental: The prokaryotic expressed and purified G3BP1-GFP protein (pH7.5, 20 uM G3BP1-GFP) was induced to form phase separated droplets in vitro. Polypeptides Champ-E (RJK001), Champ-D (RJK002), Champ-K (RJK012) and Champ-Q (RJK005, […], SEQ ID NO: 34) (each of 60 uM) were added dropwise to the G3BP1-GFP droplets. The observation was performed continuously through a confocal laser microscope.
For G3BP1(FL)-eGFP, purified G3BP1(FL)-eGFP, Champ-E and its variants were changed were diluted to droplet buffer (50 mM Tris, pH 7.5, 150 mM NaCl) using SpinDesalt Column (smart). G3BP1(FL)-eGFP proteins were diluted to indicated concentrations and supplemented with PEG8000 with 1.25% final concentration for 10 min to induce phase separation as reported.

[3] = tested on: crystallin proteins of the lens from cataract patients; assay: Soluble crystallin in cataract lens grinding fluid by western blot (anti-βB1 crystallin); set-up: species or system human; settings: 20 ul 2.5 mM RJK001 in 2 ul grinding fluid, RT 10 min
Experimental: Quantitative analysis was performed using densitometry of crystallin proteins by western blot analysis of the supernatant or insoluble fraction of cell lysates.
Quantitative analysis was performed using densitometry of crystallin proteins by western blot analysis of the supernatant or insoluble fraction of lens lysates. Collect one intact eye lenses from cataract patients. Put it in 2 ml Eppendorf tube containing 700 ul protein solubilization buffer, Grind the complete lens at 4° C., 30s once for 3 times with Electric grinder to obtain 1 ml grinding fluid, add 20 ul 2.5 mM RJK001 in 2 ul grinding fluid as the experimental group, add 20 ul protein dissolving solution in 2 ul grinding fluid as a control, place it at RT for 10 min, centrifuge at 13000 rpm and take the supernatant for western blotting, After blocking with 5% milk, membrane were incubated with anti-βB1 crystallin (Santacruz, sc-48335, 1:3000) overnight at 4° C., Membrane were incubated with secondary antibodies for 1 h at room temperature, then the blots were detected by the enhanced chemiluminescence.
C-terminal fusion cell-penetrating peptide RJK001 and N-terminal fusion cell-penetrating peptide RJK012 were purified in vitro and added into SH-SY5Y cell. Cells were harvested at 1 h, 4 h, 8 h and 24 h respectively and were washed with PBS. Total proteins were extracted from SH-SY5Y cells with lysis buffer. […]

[4] = target: T3, γD-crystallin (Homo sapiens, UniProt P07320); assay: γD-crystallin turbidity assay (OD395 nm) at 4° C.; format: biochemical; settings: γD-crystallin 50 mg/ml, RJK001 0-500 uM, 5 min
T3 construct: Wild-type human full-length γD-crystallin gene were inserted into pET14b vectors; made in house; host or cells: E. coli BL21 (DE3)
T3 sequence (P07320 1-174): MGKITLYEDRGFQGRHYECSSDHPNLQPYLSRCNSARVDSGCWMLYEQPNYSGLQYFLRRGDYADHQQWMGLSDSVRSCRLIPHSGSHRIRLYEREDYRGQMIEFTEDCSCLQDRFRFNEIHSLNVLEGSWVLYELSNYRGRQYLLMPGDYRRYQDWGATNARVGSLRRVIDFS
Experimental: The purified γD-crystallin was then dissolved in protein solubilization buffer to a final concentration of 50 mg/ml, Place γD-crystallin at 4° C. for 20 minutes to form a stable biphasic phase, add different concentration of the short peptide RJK001 in Sul γD-crystallin in a volume ratio of 1:1, final concentration of RJK001 from low to high is 0 uM, 20 uM, 50 uM, 100 uM, 150 uM, 200 uM, 250 uM, 300 uM and 500 uM, Use a 10 ul pipette tip to mix them well, then place them at 4° C. for 5 min, absorbance at 395 nm (OD395 nm) was monitored at 4° C. using Nanodrop ONE (Thermo Fisher Scientific, Inc.). […] The turbidity level reflects the degree of phase separation.
For γD-crystallin, γD-crystallin was purified in vitro, then were dissolved in protein solubilization buffer (150 mM NaCl, 50 mM tris-HCl, PH 7.5) to a final concentration of 50 mg/ml, Place γD-crystallin at 4° C. for 20 minutes to induce phase separation.
as §1, with “20 μM G3BP1 and 50 mg/ml(2.5 mM) γD-crystallin and peptide were mixed well in a ratio range of 0.75 to 25 before test.” left out

What does the source list for “TEPQEESEEEVEEPEERQQTPEVVPDDSGTFYDQTVSNDLE [RJK001, polypeptide with hydrophilic and hydrophobic segment, expressed in E. coli]”?
turbidity of G3BP1 (OD395 nm) [1]: reduced the turbidity in a concentration dependent manner; dissolution of G3BP1-GFP phase separated droplets [2]: significantly dissolved the phase separated droplets; solubility of crystallin proteins of the lens (supernatant western blot) [3]: could improve the solubility of crystallin proteins; turbidity of γD-crystallin (OD395 nm) [4]: reduced the turbidity of γD-crystallin in a concentration dependent manner
